From patent US20090111753A1, “Nogo-A Polypeptide Fragments, Variant Nogo Receptor-1 Polypeptides, and Uses Thereof” (Yale University, priority 2004, published 2009)
No end group written: not given here.

T1: NgR (Homo sapiens, UniProt Q9BZR6)
T1 construct: expressed in transfected cells; host or cells: COS-7
T1 sequence (Q9BZR6 27-447): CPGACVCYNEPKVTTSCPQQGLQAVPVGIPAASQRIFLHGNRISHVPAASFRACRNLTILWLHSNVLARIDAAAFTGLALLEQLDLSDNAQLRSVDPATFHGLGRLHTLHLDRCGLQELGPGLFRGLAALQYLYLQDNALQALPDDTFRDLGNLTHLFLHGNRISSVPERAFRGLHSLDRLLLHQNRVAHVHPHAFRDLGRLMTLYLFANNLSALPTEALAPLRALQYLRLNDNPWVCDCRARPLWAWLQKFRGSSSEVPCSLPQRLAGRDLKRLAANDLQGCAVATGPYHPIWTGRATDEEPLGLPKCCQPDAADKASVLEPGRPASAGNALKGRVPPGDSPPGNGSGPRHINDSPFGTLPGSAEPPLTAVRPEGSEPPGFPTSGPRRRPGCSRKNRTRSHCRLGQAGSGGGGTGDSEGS

T2: AP fusion protein with the B4C fragment of Amino-Nogo-A fused directly to Nogo-66 (human, UniProt Q9NQC3 1055-1120)
T2 construct: domain: Nogo-66; also called AP-B4C66; AP-B4C-66; not shown: alkaline phosphatase (AP), vector pcAP6
T2 sequence: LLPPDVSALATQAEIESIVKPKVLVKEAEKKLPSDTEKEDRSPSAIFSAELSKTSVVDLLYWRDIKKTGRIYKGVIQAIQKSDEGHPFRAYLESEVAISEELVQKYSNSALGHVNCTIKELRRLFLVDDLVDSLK

T3: AP-fused Amino-Nogo fragment B4C (a.a. 950-1018) (human, UniProt Q9NQC3 950-1018)
T3 construct: also called AmNg B4C; AP-B4C; not shown: alkaline phosphatase (AP), vector pcAP6
T3 sequence: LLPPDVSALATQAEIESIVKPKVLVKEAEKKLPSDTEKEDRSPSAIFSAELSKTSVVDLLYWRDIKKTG

T4: AP-Nogo-66 (UniProt Q9NQC3 1055-1120)
T4 construct: domain: Nogo-66; construct described elsewhere (Fournier 2001); also called AP-Ng66; Ng66; not shown: alkaline phosphatase (AP); construct described elsewhere
T4 sequence (looked up): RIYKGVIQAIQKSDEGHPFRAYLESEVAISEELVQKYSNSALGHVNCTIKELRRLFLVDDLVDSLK


Legend:
NgR = target: T1, NgR; experiment: AP fusion protein binding to NgR expressing COS-7 cells; details: for NgR Kd (nM) / Kd: AP fused Amino-Nogo fragments in conditioned media on NgR expressing COS-7 cells, 'No binding at' cells continue on the next line: AmNg A 150 nM, a.a. 1000-1018, a.a. 1005-1018, Amino of NgC 25 nM, a.a. 950-1004 50 nM, Amino of NgB 100 nM; for binding to NgR (COS-7 cells expressing NgR): qualitative
Source text: Several alkaline phosphatase (AP) fusion proteins containing various Nogo-A segments derived from regions between the amino terminus and the first hydrophobic segment were examined to identify the mechanism of Amino-Nogo-A action. To generate additional AP fusion proteins, human amino Nogo fragments were amplified and ligated to the pcAP6 vector digested with restriction enzymes EcoRI and XhoI as described (Fournier, A. E., et al., Nature 409:341-346 (2001)). Plasmids were then transfected into HEK293T cells and conditioned media were collected after 7 days. None of these fragments bind with high affinity to non-transfected COS-7 cells. […] This binding is saturable with a Kd indistinguishable from that for AP-Nogo-66 association with NgR (Table I). To better define the region responsible for Amino-Nogo interaction with NgR, a range of truncation mutants of Amino-Nogo were examined as AP fusion proteins. […] In fact, the NgR-interacting segment of Amino-Nogo is fully accounted for in the extreme carboxyl 24 amino acids (aa 995-1018, Amino-Nogo-A-24) (Table I and FIG. 1D). […] We named this domain (aa 995-1013) as Amino-Nogo-A-19.
Binding Kds for AP fused Amino-Nogo fragments were measured by applying conditioned media containing AP fusion protein to NgR expressing COS-7 cells. Bound AP was stained and measured.
It has been recognized that the Amino-Nogo-A protein inhibits non-neuronal cell spreading and axonal outgrowth when the protein is substrate bound (Chen, M. S., et al., Nature 403:434-439 (2000); Fournier, A. E., et al., Nature 409:341-346 (2001)). […] The later domain has been termed Δ20. To determine whether the NgR-interacting aa of Amino-Nogo-A described in Example 1 regulate cell spreading and axonal outgrowth, various fragments were expressed as GST fusion proteins and purified from E. coli. To generate GST fusion proteins, amino Nogo fragments were cloned in pGEX2T (Amersham Pharmacia). Native and soluble GST fusion proteins were expressed and purified as described (GrandPre, T., et al., Nature 403:439-444 (2000)). COS-7 binding assays were done as described (Fournier, A. E., et al., Nature 409:341-346 (2001)). Bound AP to COS-7 cells was measured using NIH image software. Fibroblast spreading and cDRG outgrowth assay were done as described (Fournier, A. E., et al., Nature 409:341-346 (2001)) with some modifications. Briefly, 50 μl of purified GST fusion protein or peptides diluted in PBS was pipetted into polylysine precoated 96 well plates (Becton Dickson Biocoat plates) and dried overnight at room temperature. For fibroblast spreading assay, subconfluent COS-7 cells were then plated for 1 hour in serum containing medium before fixation and staining with rho damine-phalloidin.

NgR ligands = experiment: Binding of alanine substituted NgR mutants to NgR ligands, summary categories; details: AP-Nogo66, AP-B4C, AP-B4C66, AP-Lingo-1, AP-OMgp and AP-MAG; compared to wild type NgR
Method in brief: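 AP-fused ligands (Nogo66, B4C, B4C66, Lingo-1, OMgp, MAG) were assayed against 74 Ala-substitution mutants of human NgR1 targeting surface charged patches, glycosylation sites and predicted binding regions, plus the D259N variant. Outcomes were grouped into categories: binding lost for all ligands, retained for all, or ligand-selective.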

[1] = target: T2, AP fusion protein with the B4C fragment …; experiment: AP-ligand binding, COS-7
[2] = target: T3, AP-fused Amino-Nogo fragment B4C (a.a. …); experiment: AP-ligand binding, COS-7
AP-Nogo-66 = target: T4, AP-Nogo-66; experiment: AP-ligand binding, COS-7

| Molecule | NgR Kd (nM) (NgR) | binding to NgR (COS-7 cells expressing NgR) (NgR) | Kd (NgR) [nM] | also measured |
| --- | --- | --- | --- | --- |
| ............IFSAELSKTS (LLPPDVSALATQAEIESIVKPKVLVKEAEKKLPSDTEKEDRSPSAIFSAELSKTS; also: alkaline phosphatase fusion; UniProt Q9NQC3 950-1004, looked up, fragment) [a.a. 950-1004, AP fusion protein of aa from the Nogo-A-specific region alone] | No binding | do not bind to NgR |  |  |
| IFSAELSKTSVVDLLYWRDIK [a.a. 995-1015] |  |  | 4.55 ± 3.66 |  |
| LSKTSVVDLLYWRDIKKTG (also: alkaline phosphatase fusion; UniProt Q9NQC3 1000-1018, looked up, fragment) [a.a. 1000-1018, AP fusion protein of Nogo-A aa 1000-1018] | No binding |  |  |  |
| human NgR1 alanine mutant 117, 119, 120, 139 (receptor) CPGACVCYNEPKVTTSCPQQGLQAVPVGIPAASQRIFLHGNRISHVPAASFRACRNLTILWLHSNVLARIDAAAFTGLALLEQLDLSDNAALAAVDPATFHGLGRLHTLHLDACGLQELGPGLFRGLAALQYLYLQDNALQALPDDTFRDLGNLTHLFLHGNRISSVPERAFRGLHSLDRLLLHQNRVAHVHPHAFRDLGRLMTLYLFANNLSALPTEALAPLRALQYLRLNDNPWVCDCRARPLWAWLQKFRGSSSEVPCSLPQRLAGRDLKRLAANDLQGCAVATGPYHPIWTGRATDEEPLGLPKCCQPDAADKASVLEPGRPASAGNALKGRVPPGDSPPGNGSGPRHINDSPFGTLPGSAEPPLTAVRPEGSEPPGFPTSGPRRRPGCSRKNRTRSHCRLGQAGSGGGGTGDSEGSGALPSLTCSLTPLGLALVLWTVLGPC |  |  |  | ligand binding category of NgR mutant (Table II) (NgR ligands): No binding; binding result [1]: no binding; binding result [2]: no binding; binding result (AP-Nogo-66): no binding |
| human NgR1 alanine mutant 202, 205, 227, 250, 277, 279 (receptor) CPGACVCYNEPKVTTSCPQQGLQAVPVGIPAASQRIFLHGNRISHVPAASFRACRNLTILWLHSNVLARIDAAAFTGLALLEQLDLSDNAQLRSVDPATFHGLGRLHTLHLDRCGLQELGPGLFRGLAALQYLYLQDNALQALPDDTFRDLGNLTHLFLHGNRISSVPERAFRGLASLARLLLHQNRVAHVHPHAFRDLGALMTLYLFANNLSALPTEALAPLAALQYLRLNDNPWVCDCRARPLWAWLQAFAGSSSEVPCSLPQRLAGRDLKRLAANDLQGCAVATGPYHPIWTGRATDEEPLGLPKCCQPDAADKASVLEPGRPASAGNALKGRVPPGDSPPGNGSGPRHINDSPFGTLPGSAEPPLTAVRPEGSEPPGFPTSGPRRRPGCSRKNRTRSHCRLGQAGSGGGGTGDSEGSGALPSLTCSLTPLGLALVLWTVLGPC |  |  |  | ligand binding category of NgR mutant (Table II) (NgR ligands): No binding; binding result [1]: no binding; binding result [2]: no binding; binding result (AP-Nogo-66): no binding |
| a.a. 877-1018 (AmNg B4): AP fusion protein of Amino-Nogo fragment B4, aa 877-1018 (protein, left off: large carriers) SKTDSFSKLAREYTDLEVSHKSEIANAPDGAGSLPCTELPHDLSLKNIQPKVEEKISFSDDFSKNGSATSKVLLLPPDVSALATQAEIESIVKPKVLVKEAEKKLPSDTEKEDRSPSAIFSAELSKTSVVDLLYWRDIKKTG |  |  | 9.01 ± 6.36 |  |
| AP-B4C-66: AP fusion protein with the B4C fragment of Amino-Nogo-A fused directly to Nogo-66 (protein, left off: large carriers) LLPPDVSALATQAEIESIVKPKVLVKEAEKKLPSDTEKEDRSPSAIFSAELSKTSVVDLLYWRDIKKTGRIYKGVIQAIQKSDEGHPFRAYLESEVAISEELVQKYSNSALGHVNCTIKELRRLFLVDDLVDSLK |  |  |  | Kd for binding of AP-B4C-66 to NgR (NgR; NgR expressing COS-7 cells, FIGS. 6A and 6B): subnanomolar |
| a.a. 622-1018 (AmNg B): AP fusion protein of the carboxyl half of Amino-Nogo (fragment B), aa 622-1018 (protein, left off: large carriers) SAVPSAGASVIQPSSSPLEASSVNYESIKHEPENPPPYEEAMSVSLKKVSGIKEEIKEPENINAALQETEAPYISIACDLIKETKLSAEPAPDFSDYSEMAKVEQPVPDHSELVEDSSPDSEPVDLFSDDSIPDVPQKQDETVMLVKESLTETSFESMIEYENKEKLSALPPEGGKPYLESFKLSLDNTKDTLLPDEVSTLSKKEKIPLQMEELSTAVYSNDDLFISKEAQIRETETFSDSSPIEIIDEFPTLISSKTDSFSKLAREYTDLEVSHKSEIANAPDGAGSLPCTELPHDLSLKNIQPKVEEKISFSDDFSKNGSATSKVLLLPPDVSALATQAEIESIVKPKVLVKEAEKKLPSDTEKEDRSPSAIFSAELSKTSVVDLLYWRDIKKTG |  | high affinity binding | 6.66 ± 1.49 |  |
| Amino of NgB: AP fusion protein of Amino-Nogo residues of Nogo-B (protein, left off: large carriers, AP fusion protein of Amino-Nogo residues of Nogo-B) MEDLDQSPLVSSSDSPPRPQPAFKYQFVREPEDEEEEEEEEEEDEDEDLEELEVLERKPAAGLSAAPVPTAPAAGAPLMDFGNDFVPPAPRGPLPAAPPVAPERQPSWDPSPVSSTVPAPSPLSAAAVSPSKLPEDDEPPARPPPPPPASVSPQAEPVWTPPAPAPAAPPSTPAAPKRRGSSGSVVVDLLYWRDIKKTG | No binding | fail to associate with NgR-expressing cells |  |  |
